# Reference: US20140271651A1 (AbbVie / Abbott, published 2014)
# T1: Aleuria aurantia lectin (Aleuria aurantia, UniProt P18891 2-313)
# T1 construct: also called AAL; free AAL
# T1 sequence (looked up): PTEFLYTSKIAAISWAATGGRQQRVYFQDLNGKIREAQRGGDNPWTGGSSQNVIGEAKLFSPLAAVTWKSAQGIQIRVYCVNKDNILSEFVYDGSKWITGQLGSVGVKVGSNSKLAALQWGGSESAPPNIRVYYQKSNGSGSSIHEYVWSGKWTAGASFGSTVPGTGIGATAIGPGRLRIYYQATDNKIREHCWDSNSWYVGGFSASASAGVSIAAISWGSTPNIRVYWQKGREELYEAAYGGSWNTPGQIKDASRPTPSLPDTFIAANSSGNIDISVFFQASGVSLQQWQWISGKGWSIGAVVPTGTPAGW
# T2: E. coli expressed human GP73 (amino acids 63 to 400) with C-terminal 6xHis tag (human, UniProt Q8NBJ4 64-401)
# T2 construct: No human Fc, not glycosylated; also called GP73 produced in E. coli; E. coli GP73
# T2 sequence: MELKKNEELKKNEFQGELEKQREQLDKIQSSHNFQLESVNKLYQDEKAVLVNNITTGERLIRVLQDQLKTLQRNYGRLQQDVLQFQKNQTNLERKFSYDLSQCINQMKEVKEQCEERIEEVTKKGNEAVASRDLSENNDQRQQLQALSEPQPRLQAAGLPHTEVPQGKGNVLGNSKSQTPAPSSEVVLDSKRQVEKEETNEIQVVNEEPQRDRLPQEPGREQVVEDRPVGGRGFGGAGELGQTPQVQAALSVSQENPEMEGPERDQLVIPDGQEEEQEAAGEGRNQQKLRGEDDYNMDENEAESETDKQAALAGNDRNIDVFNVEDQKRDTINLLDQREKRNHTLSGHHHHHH
# B1: GP73-hFc (human GP73 amino acids 63 to 400 fused at the C-terminus to human IgG1 Fc) (Fc fusion)
# chain: ELKKNEFQGELEKQREQLDKIQSSHNFQLESVNKLYQDEKAVLVNNITTGERLIRVLQDQLKTLQRNYGRLQQDVLQFQKNQTNLERKFSYDLSQCINQMKEVKEQCEERIEEVTKKGNEAVASRDLSENNDQRQQLQALSEPQPRLQAAGLPHTEVPQGKGNVLGNSKSQTPAPSSEVVLDSKRQVEKEETNEIQVVNEEPQRDRLPQEPGREQVVEDRPVGGRGFGGAGELGQTPQVQAALSVSQENPEMEGPERDQLVIPDGQEEEQEAAGEGRNQQKLRGEDDYNMDENEAESETDKQAALAGNDRNIDVFNVEDQKRDTINLLDQREKRNHTLRSVECPPCPAPPVAGPSVFLFPPKPKDTLMISRTPEVTCVVVDVSHEDPEVQFNWYVDGMEVHNAKTKPREEQFASTFRVVSVLTVVHQDWLNGKEYKCKVSNKGLPAPIEKTISKTKGQPREPQVYTLPPSREEMTKNQVSLTCLVKGFYPSDIAVEWESNGQPENNYKTTPPMLDSDGSFFLYSKLTVDKSRWQQGNVFSCSVMHEALHNHYTQKSLSLSPGK
# notes: Expressed in HEK293F, CHO or HepG2 cells; the host is named under assay; also called HEK expressed GP73-hFc; CHO expressed GP73-hFc
# B2: anti-GP73 monoclonal antibody 1A-4246 (antibody, V domains shown)
# VH: EVMLVESGGGLVKPGGSLKLSCAASGFTFSSYAMSWVRLTPEKRLEWVATISSGSSYTYYPDSVKGRFTISRDNVKSTLYLQMSSLRSEDTAMYYCARNWDGELHYYAMDYWGQGTSVTVSS
# VL: QIVLTQSPAIMSASLGERVTMTCTASSSVSSSYLHWYQQKPGSSPKLWVYSTSSLASGVPARFSGSGSGTSYSLTINNMEAEDAATYFCHQYHRSPYTFGGGTKLEIKR
# notes: Biotin labelled in some assays; also called mAb 1A-4246; 1A-4246-Bt
# B3: anti-GP73 monoclonal antibody 1B-3246 (antibody, V domains shown)
# VH: DVKLVESGGGLVKPGGSLKLSCAASGFTFSSYTMSWVRQTPEKRLEWVATISRGGTYIYYPDSVKGRFTISRDNAKNTLYLQMSSLKSEDTAIYYCTREYFSGDTYDYFDYWGQGTTLTVSS
# VL: EIVMTQAAFANPVTLGTSVSISCRSSKSLLHSNGITYLYWYLQKPGQSPQLLIYQMSNLASGVPDRFSSSGSGTDFTLRISRVEAEDVGIYYCAQNLELYTFGGGTKLEIKR
# notes: Biotin labelled in some assays; also called mAb 1B-3246; 1B-3246-Bt
# B4: anti-GP73 monoclonal antibody 1A-3187 (antibody, V domains shown)
# VH: QGQLQQSGAELMKPGASVKISCKATGYTIRSYWIEWVKQRPGHGLEWIGEILPGSGNTNYNEKFKGTATFTADTSSNTVYLHLSSLTSEDSAVYYCANGRGSYRYHWFAYWGQGTLVTVSP
# VL: DIVLTQSPASLAVSLGQRATISCKASQSVDYDGDSYMNWYQQKPGQPPKVLIYAASNLESGIPARFSGSGSGTDFTLNIHPVEEEDAATYYCQQSNEDPYTFGGGTKLEMKR
# notes: Biotin labelled in some assays
# Columns and labels:
# [1] = target: T1, Aleuria aurantia lectin; assay: EIA, GP73-hFc captured on donkey anti-human IgG Fc, biotin AAL pre-mixed with free fucose
# Experimental: The biotin labeled anti-GP73 mAbs were tested to determine if they were sensitive to the presence of fucose on the GP73-hFc antigen by EIA. Aleuria Aurantia Lectin (AAL) (Vector Laboratories) binds fucose with a high degree of specificity. Donkey anti-human IgG Fc (Jackson Immunoresearch) was coated on 96 well micro titer EIA plates at approximately 1 μg/mL. After the capture reagent was coated on the solid phase, the capture reagent was removed and the plates were blocked for 30 min using Protein-Free T20 (TBS) Blocking Buffer (Thermo Scientific). The wells were washed with distilled water. A 200 ng/mL solution of GP73-hFc antigen was added to the blocked plates and allowed to incubate at room temperature for at least 45 min then washed with distilled water. Fucose was added to the wells of a separate non-absorbing microtiter plate in serial dilutions starting from 1000 μg/mL Biotin labeled anti-GP73 mAbs were added to the plates at predetermined concentrations for each mAb ranging from 50 to 2000 ng/mL and incubated for 45 min at room temperature. The mixture was added to the microtiter plates with the captured GP73-hFc and allowed to incubate for 15-20 min at room temperature. Biotin labeled AAL was used as a positive control for the assay and a biotin labeled irrelevant mAb was used as the negative control. […] Plates were read at 492 nm and the results were analyzed.
# [2] = target: T3, bovine serum albumin (bovine, UniProt P02769 25-607); assay: EIA, supernatant 1:25 captured on sheep anti-mouse IgG Fc, BSA in place of antigen
# T3 construct: also called BSA
# Experimental: (§1) Cell supernatant samples were analyzed for anti-GP73 antibodies by EIA. Sheep anti-mouse IgG Fc (Jackson Immunoresearch) was coated on 96 well micro-titer EIA plates at 1 μg/mL. After the capture reagent was coated on the solid phase, it was removed and the plates were blocked using a BSA/PBS block solution. The wells were washed with distilled water and cell supernatants were added to the blocked plates and allowed to incubate at room temperature for at least one hour. A mouse monoclonal antibody 14H4-23 (Drexel University) was used a positive control. The anti-mouse IgG Fc captured the anti-GP73 mouse antibody from the supernatant. Following the incubation, the supernatants were washed off using distilled water. An irrelevant mouse-human chimeric antibody was added to all wells and incubated at room temperature for 30 min to block any captured mouse antibodies that react with the human IgG Fc fusion protein linked to the GP73 antigen. The wells were washed with distilled water and GP73-hFc was added to the plates at 200 ng/mL and incubated for 30 min. Following this incubation, the antigen was washed from the plates using distilled water. Biotin labeled goat anti-GP73 was added to the plates at 200 ng/mL and incubated for 30 min at room temperature. The plates were washed and streptavidin-HRPO (Jackson Immunoresearch) (diluted to approximately 200 ng/mL) was added to the plates and allowed to incubate for 30 min. The plates were washed with distilled water and OPD substrate was used as the chromagen to generate signal. Plates were read at 492 nm and the results were analyzed.
# Positive clones were expanded to 24 well plates in IMDM supplemented with 10% FBS and HT supplement. Following 5-14 days growth, the 24 well cultures were evaluated by EIA in the same manner as previously described, except the supernatant samples were titrated against GP73-hFc and BSA to eliminate non-specific protein binders. Once again the clones generating signal at least 3 times greater than background were considered positive and selected for further evaluation.
# [3] = target: B1; assay: sandwich EIA, rabbit anti-GP73 coated 1 ug/mL, GP73-hFc 200 ng/mL, supernatant 1:125, HRP goat anti-mouse IgG Fc
# Experimental: as §1
# (§2) The 24 well cultures were then evaluated by EIA for their ability to form a sandwich with the rabbit anti-GP73 used as a capture reagent coated directly on the solid phase. The same EIA protocol previously described was used, except rabbit anti-GP73 antibody was coated at 1 μg/mL, the GP73-hFc was tested at 200 ng/mL, and a HRP labeled goat anti-mouse IgG FC antibody was used as the conjugate reagent to generate signal.
# [4] = target: T3, bovine serum albumin; assay: sandwich EIA, rabbit anti-GP73 coated 1 ug/mL, BSA background, supernatant 1:125, HRP goat anti-mouse IgG Fc
# Experimental: as §1, §2
# [5] = target: T2, E. coli expressed human GP73 (amino …); assay: Western blot on E. coli expressed GP73 antigen
# Experimental: The mammalian cell (HEK and CHO) expressed GP73-hFc or E. coli expressed GP73, as described above, were electrophoresed in a 4-20% SDS-PAGE gel. […] The nitrocellulose membrane was blocked with PBS buffer containing 5% non-fat dry milk and 0.05% Tween 20 for about 1 hr. The nitrocellulose membrane was incubated with an appropriate amount of anti-GP73 monoclonal antibody in 10 mL of 2.5% non-fat dry milk and 0.05% Tween 20 PBS buffer, pH 7.2. The nitrocellulose membranes were washed with 0.05% Tween 20/PBS, pH 7.2, incubated with goat anti-mouse IgG antibody conjugated with HRP for 1 hr at room temperature, and washed with 0.05% Tween 20/PBS buffer. Antibody bound to the GP73 protein was visualized by the addition of freshly prepared metal enhanced 3,3′-Diaminobenzidine in stable peroxide buffer (Pierce, Ill.).
# [6] = target: B1; assay: EIA, supernatant mAb captured on sheep anti-mouse IgG Fc, GP73-hFc 200 ng/mL, biotin goat anti-GP73/streptavidin-HRPO; background 0.06
# Experimental: as §1
# [7] = target: B1; assay: SPR Biacore 2000, mAb captured on rabbit anti-mouse IgG, HEK GP73-hFc analyte 0.412-100 nM, 1:1 fit
# Experimental: First, an approximately 13,000-15,000 RU rabbit anti-mouse IgG Capture Biosensor was created by amine-coupling rabbit anti-mouse IgG antibody (GE Healthcare) to a CM5 biosensor chip (GE Healthcare) via EDC/NHS/ethanolamine chemistry provided in an Amine Coupling Kit (GE Healthcare) after pre-treating the biosensor with duplicate injections of 100 mM HCl, 50 mM NaOH, and 0.1% SDS. Purified GP73 antibody and antigen (HEK GP73-hFc) were diluted into a running buffer (hereinafter “running buffer”) composed of HBS-EP buffer (GE Healthcare) supplemented with 0.1% BSA and 0.1% CM-Dextran. Each GP73 antibody was diluted to 1 μg/mL. The GP73-hFc antigen was diluted to concentrations of 0.412 to 100 nM using a 3-fold dilution series assuming an oligomeric molecular weight of 490 kDa (Abbott Laboratories).
# The GP73-hFc antigen program was as follows. After equilibrating the rabbit anti-mouse IgG Capture Biosensor for 3 min at 5 μL/minute with running buffer, GP73 antibody (7-14 μL) was injected over individual flow cells with one flow cell being left blank as a reference flow cell. The flow cells were washed with running buffer for 3 min at a flow rate of 60 μL/min. 150 μL of HEK293 expressed GP73-hFc antigen at a random concentration was injected across the biosensor. The biosensor was subsequently re-equilibrated with running buffer for 5 min at a flow rate of 60 μL/minute. All biosensor surfaces were regenerated with one 30 μL injection of 10 mM glycine, pH 1.7 (GE Healthcare), at a flow rate of 10 μL/minute. All concentrations of HEK293 expressed antigen were tested in duplicate. The binding kinetics (association and dissociation) were monitored via sensorgrams during antigen injection and running buffer re-equilibration. The sensorgrams were double-referenced and fit to a 1:1 binding model using Scrubber 2.0 software (BioLogic Software Pty Ltd., Australia) to determine association and dissociation rates, as well as overall KD. Standard errors of determined values are reported in parentheses with respect to the smallest number place value.
# T3 sequence (P02769 25-607 limits assumed): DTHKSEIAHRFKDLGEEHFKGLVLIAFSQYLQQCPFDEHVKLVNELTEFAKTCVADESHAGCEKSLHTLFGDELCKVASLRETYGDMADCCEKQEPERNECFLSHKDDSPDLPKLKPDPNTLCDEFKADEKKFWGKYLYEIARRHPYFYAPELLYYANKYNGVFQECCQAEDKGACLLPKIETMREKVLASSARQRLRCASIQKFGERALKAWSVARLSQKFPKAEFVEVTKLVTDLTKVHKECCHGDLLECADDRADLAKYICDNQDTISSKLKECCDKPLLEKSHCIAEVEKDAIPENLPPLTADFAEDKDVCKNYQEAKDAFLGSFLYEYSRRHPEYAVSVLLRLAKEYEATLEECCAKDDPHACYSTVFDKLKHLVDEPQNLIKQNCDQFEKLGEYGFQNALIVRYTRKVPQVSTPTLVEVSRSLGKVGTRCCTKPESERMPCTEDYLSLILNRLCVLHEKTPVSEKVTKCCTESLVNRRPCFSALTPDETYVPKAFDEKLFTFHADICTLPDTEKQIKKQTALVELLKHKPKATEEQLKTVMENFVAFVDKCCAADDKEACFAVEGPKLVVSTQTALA
binder,measurement,setting,value
B1,binding result,[1],binds
B2,BSA Background OD (A492),[2],0.04 OD (A492)
B3,GP73-hFc OD (A492),[3],0.79 OD (A492)
same,BSA Background OD (A492),[4],0.1 OD (A492)
same,binding result,[5],binds
same,OD (A492),[6],1.48 OD (A492)
same,Kd,[7],0.079 nM
same,koff,[7],0.00025 s⁻¹
same,kon,[7],3.18e+06 M⁻¹ s⁻¹
B4,BSA Background OD (A492),[4],0.09 OD (A492)
same,BSA Background OD (A492),[2],0.11 OD (A492)
